For this assay, the target named is T1, IpgC (UniProt P0A2U4 1-155, limits assumed).
T1 construct: Co-expressed with Rhavi-IpaB in E. coli from pETDuet; also called chaperone IpgC
The assay is described as follows: co-expression in E. coli; chaperone retained with the His-tagged fusion on Ni-NTA until the detergent wash. The method, then: DNA fragments encoding of His-SseB and SseA or His-IpaB and IpgC were synthesized and cloned into a pETDuet vector containing Rhavi by restriction enzyme digestion and ligation. Sequence-confirmed plasmids were transformed E. coli T7 shuffle express cells and transformants containing the relevant cloned proteins were grown to OD600=1 at 25° C., and protein expression was induced with 0.2 mM IPTG at 16° C. overnight. Cells were spun down and pellets were resuspended in lysis buffer (20 mM Tris-HCl, 500 mM NaCl, pH8.0) and then lysed by sonication. Supernatant was loaded over a Ni-NTA column and SseA or IpgC was washed off column with 0.05% LDAO in lysis buffer; proteins Rhavi-SseB and Rhavi-IpaB were eluted in imidazole buffer. Protein-containing elutions were combined, purified over a gel-filtration column for dimer fractions.

One molecule from patent US20250064910A1 (CHILDREN S MEDICAL CENTER, published 2025) can be followed below.

T1 sequence (P0A2U4 whole entry): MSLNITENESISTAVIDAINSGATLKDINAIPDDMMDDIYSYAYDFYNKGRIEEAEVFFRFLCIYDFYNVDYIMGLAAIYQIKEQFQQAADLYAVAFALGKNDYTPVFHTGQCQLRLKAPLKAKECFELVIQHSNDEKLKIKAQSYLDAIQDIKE

B1: Rhavi-IpaB (rhizavidin fused to Shigella IpaB) (other)
chain: FDASNFKDFSSIASASSSWQNQSGSTMIIQVDSFGNVSGQYVNRAQGTGCQNSPYPLTGRVNGTFIAFSVGWNNSTENCNSATGWTGYAQVNGNNTEIVTSWNLAYEGGSGPAIEQGQDTFQYVPTTENKSLLKDGGGSSHNVSTTTTGFPLAKILASTELGDNTIQAANDAANKLFSLTIADLTANQNINTTNAHSTSNILIPELKAPKSLNASSQLTLLIGNLIQILGEKSLTALTNKITAWKSQQQARQQKNLEFSDKINTLLSETEGLTRDYEKQINKLKNADSKIKDLENKINQIQTRLSELDPESPEKKKLSREEIQLTIKKDAAVKDRTLIEQKTLSIHSKLTDKSMQLEKEIDSFSAFSNTASAEQLSTQQKSLTGLASVTQLMATFIQLVGKNNEESLKNDLALFQSLQESRKTEMERKSDEYAAEVRKAEELNRVMGCVGKILGALLTIVSVVAAAFSGGASLALAAVGLALMVTDAIVQAATGNSFMEQALNPIMKAVIEPLIKLLSDAFTKMLEGLGVDSKKAKMIGSILGAIAGALVLVAAVVLVATVGKQAAAKLAENIGKIIGKTLTDLIPKFLKNFSSQLDDLITNAVARLNKFLGAAGDEVISKQIISTHLNQAVLLGESVNSATQAGGSVASAVFQNSASTNLADLTLSKYQVEQLSKYISEAIEKFGQLQEVIADLLASMSNSQANRTDVAKAILQQTTA
notes: also called IpaB fused to rhizavidin; Rhavi-IpaB carrier protein
For the molecule B1, the binding result is recorded as “binds”.
